Assay results as given in US20110257371A1 (Teva, published 2011).
Where a chain is given by its changes, count along the chain named. Values belong to the binder of their own block, whether it stands above or below them. Where no end group is shown, it is not given here. The star is where a group is joined. Biotin = O=C1N[C@H]2[C@H](CS[C@H]2CCCCC(=O)*)N1

Key:
F37A = target: T1, F37A (ends and bridges not checked); test: Biacore alanine scan, 25 °C, N-biotinylated fragment on SA chip, G1 Fab titrated; against the wild-type 25-37 fragment
T1 peptide: Biotin-NNFVPTNVGSKAA
Procedure: (§1) Interaction analysis was conducted at 25° C. on a Biacore 3000™ system equipped with streptavidin-coated (SA) sensor chips (Biacore AB, Uppsala, Sweden) using a standard Biacore running buffer (HBS-P). […] Each amino acid between position 27-37 was then mutated individually to alanine and expressed the fold loss in affinity compared to the wild-type fragment. […] Fab fragments were titrated over the chip using 1 μM as the top concentration of a two-fold dilution series. Association and dissociation phases were monitored at 100 μl/min for 1 minute and 5 minutes respectively. Surfaces were regenerated with a mixture of 35% ethanol+25mM NaOH+0.5M NaCl.

G33A = target: T2, G33A (ends and bridges not checked); test: as above
T2 peptide: Biotin-NNFVPTNVASKAF
Procedure: as §1

K35A = target: T3, K35A; test: as above
T3 sequence (peptide, N-terminal biotin (p-0192)): NNFVPTNVGSAAF

V32A = target: T4, V32A; test: as above
T4 sequence (peptide, N-terminal biotin (p-0192)): NNFVPTNAGSKAF

S34A = target: T5, S34A; test: as above
T5 sequence (peptide, N-terminal biotin (p-0192)): NNFVPTNVGAKAF

human β-CGRP = target: T6, human β-CGRP (human, not fully specified; C-terminal amide (CONH2) as printed; N-biotin on chip); test: Biacore, N-biotin-CGRP on chip, 37 C
T6 construct: also called β-human
T6 peptide: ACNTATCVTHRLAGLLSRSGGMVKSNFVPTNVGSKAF

human α-CGRP [1] = target: T7, human α-CGRP (human, not fully specified; C-terminal amide (CONH2) as printed; N-biotinylated in the Biacore assays); test: Biacore, N-biotin-CGRP on chip, 37 C
T7 construct: Full-length 37-residue peptide; also called α-Hu; α-human
T7 peptide: T6 peptide with N3D, M22V, S25N

rat β-CGRP = target: T8, rat β-CGRP (rat, not fully specified; C-terminal amide (CONH2) as printed; N-biotin on chip); test: Biacore, N-biotin-CGRP on chip, 37 C
T8 construct: also called β-rat
T8 peptide: T6 peptide with A1S, M22V, S25D

rat α-CGRP [2] = target: T9, rat α-CGRP (rat, not fully specified; C-terminal amide (CONH2) as printed; N-biotinylated in the Biacore assays); test: Biacore, N-biotin-CGRP on chip, 37 C
T9 construct: also called α-Rat; α-rat
T9 peptide: T6 peptide with A1S, M22V, S25D, K35E

human α-CGRP [3] = target: T7, human α-CGRP; test: Biacore, N-biotin-CGRP on chip, 25 C
rat α-CGRP [4] = target: T9, rat α-CGRP; test: Biacore, N-biotin-CGRP on chip, 25 C
human α-CGRP [5] = target: T7, human α-CGRP; test: Biacore, ratio of KD at 25 C, reference rat α-CGRP

Fold loss in affinity (F37A): 339 fold | Fold loss in affinity (G33A): 504 fold | Fold loss in affinity (K35A): 8.1 fold | Fold loss in affinity (V32A): 6.1 fold | Fold loss in affinity (S34A): 10.9 fold
B1: Fab fragment of antibody G1 (Fab, V domains shown)
VH: EVQLVESGGGLVQPGGSLRLSCAASGFTFSNYWISWVRQAPGKGLEWVAEIRSESDASATHYAEAVKGRFTISRDNAKNSLYLQMNSLRAEDTAVYYCLAYFDYGLAIQNYWGQGTLVTVSS
VL: EIVLTQSPATLSLSPGERATLSCKASKRVTTYVSWYQQKPGQAPRLLIYGASNRYLGIPARFSGSGSGTDFTLTISSLEPEDFAVYYCSQSYNYPYTFGQGTKLEIK
notes: also called Purified Fab fragments of antibody G1

T1/2 (human β-CGRP): 2.76 h | T1/2 (human α-CGRP [1]): 5.3 h | T1/2 (rat β-CGRP): 2.45 h | T1/2 (rat α-CGRP [2]): 0.48 h | T1/2 (human α-CGRP [3]): 24.7 h | T1/2 (rat α-CGRP [4]): 3.12 h | fold more potent than for rat α-CGRP (human α-CGRP [5]): 40 fold
B2: antibody G1 (antibody, human IgG2, kappa, V domains shown)
VH: B1 VH
VL: EIVLTQSPATLSLSPGERATLSCKASKRVTTYVSWYQQKPGQAPRLLIYGASNRYLGIPARFSGSGSGTDFTLTISSLEPEDFAVYYCSQSYNYPYTFGQGTKLEIKR
notes: Humanized IgG2 delta-a monoclonal derived from muMAb7E9; heavy chain entry includes the modified IgG2 constant region; also called anti-CGRP antibody G1
